From the DeepSol protein solubility set

Assay: soluble on expression in E. coli; label from the status in PepcDB or PDB records

Row | Sequence | soluble on expression in E. coli
1 | MSLGRIYRGVEVGDVALGGKTPEEAREIVLRRAEGALERVELRGGPEGEISFDARRMGIDYKVRETVQAAYAVGREGNLLERLGERLRAAYGTVQIEPRVDYRPSVARQRIEEVASRLDRPPRQAEVNVYGSEVDVVGSREGYRVDVEATMRSVGEAVEDMSGEARLVGRVLEPEYTTAEAERAAERARRALDGELVLTYEGRRWTVSPAAIGDSLDITARDGEFRVGVDRDRLRENLSGVYAAINQEPVEAGYEISGEQITVTPSRTGRAIQDEKLLGAIEEGIFEGRREYRIPVAVDRPELTTAEAERLKPTDLLATYQTNYLTYDDSPGRVENLEIASEAVDGTLLAPGEVFSFNELAAPLDYHDTKVIINGRVDTAEGGGLCQVSSTLYMAANLAGLDVIERHPHYAELPYIRPGFDATVWFGALDMKFKNTSPGYILIREWVDRSTGTVNAAIYGRPSGIEVDMRSEKVSETVDEEGNPVTTWITYQTVRKNGEVVFDGVLHKDVYKYLKPAAPDAEGHHHHHH | soluble
2 | MASQADAQELAALRALSASIGLNPHMTQAAGGNTSLKAGDTLWIKASGTWLKDALSDDIMVPVAMAPLLEAVEEGDPAADKPQAFAINELNPRGLRPSIETTVHALMPQRVVLHVHCVDTISLAVQADGEAEVARRLGGIEWAYVPYCRPGLPLARGISEKLRPNVDVLILGNHGLVVAADTVAEAQRLLHRVRSLLARPARATAAPDIAALTALAADSAYRLPADLEAHAVALDPQSRRMAEAGSLYPDHVIFLGQGSVVAKPGENAAGVATRLGAAPVAILFPGAGVLVRGDASAGADAMQRCLADVTARVDVAARLNYLTAAENDELVNWDAEQYRQKLNATGGLEHHHHHH | not soluble
3 | SVACLSCRKRHIKCPGGNPCQKCVTSNAICEYLEPSKKIVVSTKYLQQLQKDLNDKTEENNRLKALLLER | soluble
4 | MRVSDQVVQKLQGLIEQRHLKQGDRLPAERQLATSLGISRPSLREAIQQLNSLGILASRRGDGTYIQQLPETWSQQLIVEPISNLIEEDPEYRFDVQEARIVLEGGTAWYAALRSTEADRAKIHQCFDEIAYHQLQGDSAAAAVADANFHLAIAEASHNLVLIQMMRSLFDLLQYNVVLGRKKVYNHPVSADQLSEQHFQVMDAIDRQDAQAARDAVCGHIEFVIDHVRSLDEDEARQKRATRLHRIDQT | not soluble
5 | PATCPIVPGQEMIIEISKGRSGLGLSIVGGKDTPLNAIVIHEVYEEGAAARDGRLWAGDQILEVNGVDLRNSSHEEAITALRQTPQKVRLVVYRDEAHYRDEE | soluble
6 | MGSDKIHHHHHHYMDTIPTENVSFTTVSTSLDNLYLALNGIHRKMVSQDLGNQGLGGEPGFIIGREALADDLTWDTQTWHQGFLNWSYPTNATSSYNSGEWETYYKFILNANNILKALNDNFSDESKLTDSEKALANHIKGECLAIRAWSHFNLVQYYAKPYRNGQDNSQPGVPYRTSPEIEPMARNTVEEVYTKIHGDLDEALNLLADYEPNDKNHYSLASVYGLKARALLTQQKYADAATAAVNSINEAEKDGCKIMSQSELMNGFANITSATKEAMYAAMTQNDQTVYFYSFYAYMSWNFNSSSIRTGIKCISQSTYDLMSPTDLRRQWWDPTGKAEVPATSYNQRVYQNRKFTARSTADAVGDFAFMRISEMYLTAAEAFARSNQDAKAKEYLQALLKERDPEYKDLGNTGAKLADEIMTHRRIELWGEGFRWFDLKRLGLPLDRTGSNFDATFCGFLHKDPNADGWIFEIPKKETDFNDLIEKNY | not soluble
7 | MNPILAMLKENNISNEQINELFQTLTQNPLAAMATLAQLGLPQDKMQMVLAQVMQNPALIKQAVEELGLDFAKVEAAKAKLQQ | not soluble
8 | MGSDKIHHHHHHMNLFSPHLKRNELIKFAKELDFSKSQDLLINVHRNHAFEGVQSIIAPFLHFANLRAEFNFSSYDDSLSFDNFKEASLELLWLDLTRYKNNVQNFIEERLLELRKISQNPILVLSLGEFKTDKKILNCEIFNIEKLIKEYFDEEDILDLAKEELTGSKLNNKALIFLAQILGLSLIPALVKPALKALVLDLDNTLYQGILGEEGIDNLNLSPLHKTLQEKIKTFKKQGFLLALASKNEEKDAKKLFEIRKDFILQWDDFDARMINWEPKGENILKIAKKFNINTNAMLFIDDNIAELENTKITGVKTLLCDENILYKIKLFPNLLKLSNTKEDQIRAKDIAANALREELKSLSDEEYFQNLEISLNFSKNDLQNIPRISELLGKTNQFIANYTRLNQEKVAQHMQKELIVSVSMSDKLSDSGIIAIFVFSCKEGNLFIDDLCISCRALGRKLETRMFFKAFELALHFFDLKNNNARLYYQKGERNMPFLSFLEQISKEFEKNSALIPFQNLNFKGLIIHEN | not soluble
9 | MSLTTDTTSQTVLRSRKDVPSSDCWDTKSLYASREAWKKDLENLCGKEAPFWPHLNEKQFHIEQPSSLYKLLTEVFSIERTLEKLYVYAHLTHDEDISNQEATADLKSITYLLTSFSEEISWIQPALIALPQKISEELLTSPELQTYHFYLKKIFRLAPHTGTSREEKILASSSPALEVAYKTFSSLTDSEIPFGEAVDSEGKSHPLSHALSSLYMQSPDRELRKSAYQKQCQRYHGYRLSLANLLNGKIQAHLFNAKAHNYKSCLEAALFQNNISTSVVTTLIETVKQHTHLMTKYFQLKQKALGLPDFHFYDVYAPIAASEFARHYSYEEAVSLICDSLTPLGDNYVEALRKGLTSEGWVDKYENQNKRSGAYSSGCYDSKPYILMNYTGTLYDVSVVAHEGGHSMHSFLSHKHQQYHEAQYPIFLAEIASTLNETLLMEFLLKNAPSKEEKIAILSRSLDTIFATLFRQTLFADFELEAHSAAEQGIPLTEEFFSQSYKKLQHIFYGDCVTFDELSSIEWARIPHFYYNFYVYQYATGIIASLCFSEKILSKEAGAQEAYLTFLQSGGSDFPIEILKKSGLDMTSSAPMLKAFSYIERKLDELTNLLEGHHHHHH | soluble
10 | MIKMIVVLRLGHRPERDKRVTTHVALTARAFGADGIIIASEEDEKVKESVEDVVKRWGGPFFIEFNRNWRKVMKEFTGVKVHLTMYGLHVDDVIEELKEKLKKGEDFMIIVGAEKVPREVYELADYNVAIGNQPHSEVAALAVLLDRLLEGKGLKKEFKGAKIKIVPQARGKKVVEVQGYAEQDKAEGKATPGKNWENSGFTGDNP | soluble
11 | HHSVEAPQVKKRMGKFPFVKASKKESEEISKQLHNALDIELPSESTVWLRDKDVWLFPDALEPMIGELRFSRMGIKIAEAHKNGYRWQHQVATALATGAESNAIELTIEEAREWYMGRDVRPQIIPEGLKTGKGEVLVKYQGAIIGLGKWVSNRIKNGLPRELVRDKNLF | not soluble
12 | MSLAQLIFDEEKVTSVIDRIVKRTFQMDFAWDWPGGVAFYGVAEAYEATENEEYINLLKTWVDEQLEDGLPPLSINGVSIGHTLLFLHKVTGDDVYLETAAEMAEYVLHKAPRFGEGILQHTVNAAEYVFPEQAWADTLMMAGLFMLRIGRVMEREDYFEDGLRQFHGHEDVLQDPVTNLYYHAWDNKAQNHLSGIYWGRANGWAALTMAKALPLIEVTHPSFMIIDGSLRDQLSALVRLQDESGLWHTILDDPDSYLEVSASAGIASALMSSGKLYTKYVQKSLAAILDAVEEDGRVSRVSAGTAVMKNAEGYKQVPYKRIQGWGQGLALTFLADVLKTKKRLYQEGHHHHHH | soluble
13 | MRVVIQRVKGAILSVRKENIGENEKELEIISEIKNGLICFLGIHKNDTWEDALYIIRKCLNLRLWNNDNKTWDKNVKDLNYELLIVSQFTLFGNTKKGNKPDFHLAKEPNEALIFYNKIIDEFKKQYNDDKIKIGKFGNYMNIDVTNDGPVTIYIDTHDINLNK | soluble
14 | NAKVKRIRLGNLKKTVKLYDLIDEFHSTTLENLKNGLRTGRGYCIEINKQVVSMAKSTSENRTHAMIIGVGTHPKYRAKGLATKCLIKLCSELLRENKIPCLFYDNEEAGKIYKKLGFENIGKWGIYSK | not soluble
15 | MSTCATVSRDLDEPLAGTAATARTWLLLEQPGPWGTKALTSSHLDQALGRALEAAAEGTGVRIALIRRPGRHADCGTPAVRQVYAAHTVPGNVWLHGAMTSDPEQLLDLDFTALGMGDPHTFDRLLGGRPHTGDPLALVCTNGKRDRCCALLGRPLAAELAASGVTGAWEVTHLGGHRFAPTLLILPFGYAYGRAEAPHIKEVLQGVREGRVVVEGCRGRSAWERPGQAAELAVRTAAHEYAADALTVVATDGTAPRWEVTVAHADGRLWRVIVAQGASLPPRPESCGSALGSPARMDVVAVRELIPTEIDATSR | not soluble
16 | MASGQDKTHIDYAYELDITVKPDSRVPVFNREFATFTGAGVPLFSLGGGPIRYALAEVLAKFHARRGYYVVETPIIASTELFKVSGHIEFYRNNMYLFDIEGHEFAVKPMNCPYHILLFLNEVAKHRSKLPLPFKVFEFGRVHRYEPSGSIYGLLRVRGFTQDDAHIIVPGGRVIDVVYDVFEEMKLVLERLFKLGVSSETFKVRLSMSDKSLIGKEFMGSKEEWEGAEEALREAASRINEKYGIDIVELEGEAAFYGPKLDFIMMVEESGVSKEWQMGTIQFDFNLPRRFRLYDVVREEFGIEEVYIIHRALLGSIERFLGVYLEHRRGRMPFTLAPIQFAVIAVKTGGEVDREIEDLASSIAKGLLDKGFRVAVKGSSKTGLSSDVRHIESTAKPAVNVFIGAKEVREKVLDVRVFDLESMKRRRLAIAYGDAADAVENLAAVAEELESPVRSLSGQAPRIPADFSFML | soluble
17 | MILIKNGRVMDPKSQRDQVADVLIDGKQIVKIASAIECQEAQVIDASGLIVAPGLVDIHVHFREPGQTHKEDIHTGALAAAAGGVTTVVMMANTNPVISDVETLQEVLASAAKEKIHIYTNASVTQAFNGKDVTDFKALLEAGAVSFSDDGIPLESSKVLKEAFDLANANQTFISLHEEDPQLNGVLGFNEGIAEEHFHFCGATGVAEYSMIARDVMIAYDRQAHVHIQHLSKAESVQVVAFAQQLGAKVTAEVSPQHFSTTEDLLLIAGTSAKMNPPLRTQRDRLAVIEGLKSGVITVIATDHAPHHKDEKTVDDMTKAPSGMTGLETSLSLGLTHLVEPGHLTLMSLLEKMTLNPALLYGFDAGYLAENGPADLVIFADKQERLITENFASKASNSPFIGNKLKGVVKYTIADGEVVYPN | not soluble
18 | MLDKIRFTVLLDRPFYQPGQTIQGHVVCEPHHPLEIDCVEGRLHGEIQYFQQLPPNHNRNGSPLPPSKTRVLIDEKAQLWKYQTVSEMLGLDVFYDENQNRHFSSESASASSSSLFTTAATFPIQIELPHFAPPSFYCPGSPVSIRFTLEIQLYNQGFKIASHEENLVVLNYESIKRQVTPKPVNFQKTFNFPKERSISLEMLLPTDVFTTTARLENCITICNRWKQSLKYVHLNIVRRISALNQNNEVIDTVKIDTTGVGLPSKTKIAVGETYSFRPTFNVPALPPNIHVNGLFKTEYSLKVTIGRAHNFVLASYEVPITIVTMDQSSRRSMQKEDILVDISASNNTLNNLPVDLLA | not soluble
19 | MGILAERLDSLSIETSSPDGQITGVFRPTSALSVHFRDGGYRGYTERGLERQLAALVASAWARYWRARQAAVAEATGEPAVPHQPWDTAGRRYRAERDRTRCEGMSAGHRVHVSHTGLRDWNVVVRDGTLSTLDEFGFAAELESGFTAAMRDHRHKLMMLRDKHLPR | not soluble
20 | THALEPSKPLAHDEKPITIEVVSMDWKWFFIYPEQGIATVNEIAFPANTPVYFKVTSNSVMHSFFIPRLGSQIYAMAGMQTRLHLIANEPGTYDGICAEICGPGHSGMKFKAIATPDRAAFDQWVAKAKQSPNTMSDMAAFEKLAAPSEYNQVEYFSNVKPDLFADVINKFMAHGKSMDMTQPEGEHSAHEGMEGMDMSHAESAH | soluble
